Test: Intramolecular (inter-strand) crosslinking yield of nanobody/monobodies by mass spectrometry
Settings: UAA-encoded monobodies, MS characterization (Table 5)
From the text: To probe whether CATK-1 is suitable for inter-strand cross-linking in proteins containing the disulfide bond, we selected a small protein called nanobody NB1, a prototypical single-chain VHH antibody that binds specifically to GFP protein. Based on NB1 structure, there is one disulfide bond formed between Cys-24 and Cys-98, close to a proposed orthogonal crosslinking site at Val-4 and Tyr-106 (FIG. 5a, left). To test orthogonal crosslinking, we placed CATK-1 at Val-4 position to target Tyr-106 located 5.6 Å away on the opposing strand. The BocK- and CATK-1-encoded NB1 were successfully expressed at yields of 14.3 mg L^−1 and 3.5 mg L^−1, respectively (FIG. 5b, left). […] Separately, we also examined the utility of CATK-1 in effecting intramolecular crosslinking in an antibody mimic called monobody. Due to their lack of cysteine residues, small size (˜10 kDa), and evolvable binding affinity and specificity, monobodies represent an ideal protein scaffold for targeting protein-protein interactions in the cytosols of mammalian cells. However, monobodies are cell impermeable, severely limiting their potential. One strategy to potentially overcome this limitation is to combine protein surface supercharging with orthogonal crosslinking to increase stability in the endosomes and thus improve cytosolic delivery. To this end, we designed an overall +10 charged monobody NSa1, termed NSa1(+10), using the Supercharge protocol on ROSIE Rosetta Online Server and added an amber codon at Ala-13 position. Based on the NSa1 structure, A13CATK-1 is well-positioned to react with the proximal Tyr-92 on the opposing strand at C-terminus (FIG. 5a, right). Accordingly, the wild-type and NSa1(+10) mutant proteins encoding CATK-1 or BocK were expressed and purified in good yields (4.1-6.9 mg L^1; FIG. 5b, right). […] The crosslink-containing fragment was identified by LC/MS after trypsin digestion (FIG. 21).
To assess if BeLaK is suitable for orthogonal crosslinking of domain antibodies, we selected NSa1, a monobody-based SHP2 inhibitor, and placed BeLaK at position-13 of the N-terminal β-strand. A panel of supercharged NSa1 mutants carrying overall charges of +6, +8, +11, and +18, respectively, were designed using Supercharge protocol on ROSIE Rosetta Online Server with native NSa1 (˜2 charge) as a template. […] Thus, the supercharged monobodies encoding either BeLaK or BocK were expressed in good yields (2.2˜7.2 mg L^−1; FIG. 42). […] Furthermore, as the positive charge increases, the mobility decreases, likely due to reduced overall negative charge after association with the SDS molecules. MS analysis further confirmed the identities of the supercharged NSa1 mutants (FIG. 34c). Since the unreacted BeLaK-encoded monobodies share the same mass as the crosslinked ones, we treated the purified monobodies with excess β-mercapto-ethanol for 7 days, which accelerates the hydrolysis of the unreacted β-lactam and in turn adds +18 Da to protein mass, and monitored the intact mass change. Using this method, we determined orthogonal crosslinking yields to range from 5% for native NSa1 to more than 50% for +8/+11/+18 mutants (FIG. 42). We attribute the higher yields to the increased conformational dynamics, which promotes proximity-driven crosslinking reactions. The crosslinking sites in +11 and +18 mutants were mapped to Lys-21 and Lys-19, respectively, residues on the nearby β-strand, based on the identified fragment masses after trypsin digestion (FIG. 34d, FIG. 50).
Crosslinking yield determination of BeLaK-encoded NSa1 variants. To quantify the extent of crosslinking, β-mercaptoethanol (20 mM) was added at a final concentration of 2.58 mM (100 equiv, 3 μL) to a solution of purified NSa1 variants (25 μM, 30 μL) in elution buffer (50 mM Na2HPO4, pH=7.4, 300 mM NaCl, 250 mM imidazole). The mixture was incubated at 37° C. overnight. Afterwards, the mixture was removed from the incubator and allowed to incubate at 25° C. for 1 week.

Molecule | X-linking yield
NSa1(+7)-A13BeLaK: supercharged NSa1 monobody encoding BeLaK; SEQ. ID. NO: 11 (protein, BeLaK non-natural residue at position 13; MOD_RES 34 X is N6-(2-Oxoazetidine-1-carbonyl)-L-lysine, supercharged NSa1 monobody encoding BeLaK; ID; NO: 11) MGSSHHHHHHSSGTENLYFQGVSSKPTKLRVVRXTPTSLKIKWDAPAVTVDYYVITYGEKGRGGYAWQEFEVPGSKRTATISGLKPGVDYTITVYAGYKGYPTYYSSPISINYRT | 61%
NSa1(+10)-A13BeLaK: supercharged NSa1 monobody encoding BeLaK; SEQ. ID. NO: 14 (protein, BeLaK non-natural residue at position 13; MOD_RES 34 X is N6-(2-Oxoazetidine-1-carbonyl)-L-lysine, supercharged NSa1 monobody encoding BeLaK; ID; NO: 14) MGSSHHHHHHSSGTENLYFQGVSSKPTKLRVVRXTPTSLKIKWDAPAKTVDYYVITYGETGRGGYAWQRFEVPGSKRTATIKGLKPGVDYTITVYAGYKGYPTYYSSPISINYRT | 86%
NSa1(+5)-A13BeLaK-Y92K: supercharged NSa1 monobody encoding BeLaK; SEQ. ID. NO: 7 (protein, BeLaK non-natural residue at position 13; MOD_RES 34 X is N6-(2-Oxoazetidine-1-carbonyl)-L-lysine, supercharged NSa1 monobody encoding BeLaK; ID; NO: 7) MGSSHHHHHHSSGTENLYFQGVSSKPTKLRVVRXTPTSLKISWDAPAVTVDYYVITYGEKGSGGYAWQEFEVPGSKRTATISGLKPGVDYTITVYAGYKGYPTYYSSPISINKRT | 53%
NSa1(+10)-A13BeLaK-C95: supercharged NSa1 monobody encoding BeLaK, C-terminal Cys; SEQ. ID. NO: 22 (protein, BeLaK at position 13; C-terminal Cys; MOD_RES 34 X is N6-(2-Oxoazetidine-1-carbonyl)-L-lysine, supercharged NSa1 monobody encoding BeLaK, C-terminal Cys; ID; NO: 22) MGSSHHHHHHSSGTENLYFQGVSSKPTKLRVVRXTPTSLKIKWDAPAKTVDYYVITYGETGRGGYAWQRFEVPGSKRTATIKGLKPGVDYTITVYAGYKGYPTYYSSPISINYRTC | 22%
12VC1(+8)-A13BeLaK-Y92K: monobody 12VC1(+8) encoding BeLaK; SEQ. ID. NO: 2 (protein, BeLaK non-natural residue at position 13; VARIANT 34 X is Ne-(tert-butoxycarbonyl) lysine or N6-(2-Oxoazetidine-1-carbonyl)-L-lysine, monobody 12VC1(+8) encoding BeLaK; ID; NO: 2) MGSSHHHHHHSSGTENLYFQGVSSVPTKLKVVAXTPTSLLISWDAPAVTVFFYVITYGETGHGVGAFKAFKVPGSKSTATISGLKPGVDYTITVYARGYSKKGPYKPSPISINKRT | 86%
12VC1(+10)-A13BeLaK-Y92K: monobody 12VC1(+10) encoding BeLaK; SEQ. ID. NO: 3 (protein, BeLaK non-natural residue at position 13; VARIANT 34 X is Ne-(tert-butoxycarbonyl) lysine or N6-(2-Oxoazetidine-1-carbonyl)-L-lysine, monobody 12VC1(+10) encoding BeLaK; ID; NO: 3) MGSSHHHHHHSSGTENLYFQGVSKVPTKLEVVAXTPTSLLIKWDAPAVTVKFYVITYGEKGHGVGAFQAFKVPGSKRTATIKGLKPGVDYTITVYARGYSKQGPYKPSPISINKRT | 83%
NSa1(+17)-A13BeLaK: supercharged NSa1 monobody encoding BeLaK; SEQ. ID. NO: 18 (protein, BeLaK non-natural residue at position 13; MOD_RES 34 X is N6-(2-Oxoazetidine-1-carbonyl)-L-lysine, supercharged NSa1 monobody encoding BeLaK; ID; NO: 18) MGSSHHHHHHSSGTENLYFQGVKSKPTKLRVVRXTPTSLKISWKAPKKTVDYYVITYGKTGSGGYAWQRFRVPGSKRTAKIKGLKPGVDYTITVYAGYKGYPTYYSSPISINYRT | 87%
NSa1(+17)-A13BeLaK-Y92K: supercharged NSa1 monobody encoding BeLaK; SEQ. ID. NO: 19 (protein, BeLaK non-natural residue at position 13; MOD_RES 34 X is N6-(2-Oxoazetidine-1-carbonyl)-L-lysine, supercharged NSa1 monobody encoding BeLaK; ID; NO: 19) MGSSHHHHHHSSGTENLYFQGVKSKPTKLRVVRXTPTSLKISWKAPKKTVDYYVITYGKTGSGGYAWQRFRVPGSKRTAKIKGLKPGVDYTITVYAGYKGYPTYYSSPISINKRT | 89%
NSa1(+10)-A13BeLaK-C1: supercharged NSa1 monobody encoding BeLaK, N-terminal Cys; SEQ. ID. NO: 15 and 23 (protein, BeLaK at position 13; N-terminal Cys; MOD_RES 35 X is N6-(2-Oxoazetidine-1-carbonyl)-L-lysine, supercharged NSa1 monobody encoding BeLaK, N-terminal Cys; ID; NO: 15 and 23) chain 1: MGSSHHHHHHSSGTENLYFQGCVSSKPTKLRVVRXTPTSLKIKWDAPAKTVDYYVITYGETGRGGYAWQRFEVPGSKRTATIKGLKPGVDYTITVYAGYKGYPTYYSSPISINYRT chain 2: MGSSHHHHHHSSGTENLYFQGCVSSKPTKLRVVRXTPTSLKIKWDAPAKTVDYYVITYGETGRGGYAWQRFEVPGSKRTATIKGLKPGVDYTITVYAGYKGYPTYYSSPISINYRT | 97%
NSa1(+17)-A13BeLaK-Y92K-C1: supercharged NSa1 monobody encoding BeLaK; SEQ. ID. NO: 20 (protein, BeLaK at position 13; N-terminal Cys; MOD_RES 35 X is N6-(2-Oxoazetidine-1-carbonyl)-L-lysine, supercharged NSa1 monobody encoding BeLaK; ID; NO: 20) MGSSHHHHHHSSGTENLYFQGCVKSKPTKLRVVRXTPTSLKISWKAPKKTVDYYVITYGKTGSGGYAWQRFRVPGSKRTAKIKGLKPGVDYTITVYAGYKGYPTYYSSPISINKRT | 87%
NSa1(+7)-A13BeLaK-Y92K-C1: supercharged NSa1 monobody encoding BeLaK; SEQ. ID. NO: 12 (protein, BeLaK at position 13; N-terminal Cys; MOD_RES 35 X is N6-(2-Oxoazetidine-1-carbonyl)-L-lysine, supercharged NSa1 monobody encoding BeLaK; ID; NO: 12) MGSSHHHHHHSSGTENLYFQGCVSSKPTKLRVVRXTPTSLKIKWDAPAVTVDYYVITYGEKGRGGYAWQEFEVPGSKRTATISGLKPGVDYTITVYAGYKGYPTYYSSPISINKRT | 60%
NSa1(+5)-A13BeLaK-Y92K-C1: supercharged NSa1 monobody encoding BeLaK; SEQ. ID. NO: 9 (protein, BeLaK at position 13; N-terminal Cys; MOD_RES 35 X is N6-(2-Oxoazetidine-1-carbonyl)-L-lysine, supercharged NSa1 monobody encoding BeLaK; ID; NO: 9) MGSSHHHHHHSSGTENLYFQGCVSSKPTKLRVVRXTPTSLKISWDAPAVTVDYYVITYGEKGSGGYAWQEFEVPGSKRTATISGLKPGVDYTITVYAGYKGYPTYYSSPISINKRT | 25%
NSa1(+10)-A13BeLaK-Y92K-C1: supercharged NSa1 monobody encoding BeLaK; SEQ. ID. NO: 16 (protein, BeLaK at position 13; N-terminal Cys; MOD_RES 35 X is N6-(2-Oxoazetidine-1-carbonyl)-L-lysine, supercharged NSa1 monobody encoding BeLaK; ID; NO: 16) MGSSHHHHHHSSGTENLYFQGCVSSKPTKLRVVRXTPTSLKIKWDAPAKTVDYYVITYGETGRGGYAWQRFEVPGSKRTATIKGLKPGVDYTITVYAGYKGYPTYYSSPISINKRT | 100%

Source: patent US20260117274A1, “ORTHOGONALLY CROSSLINKED PROTEINS, METHODS OF MAKING, AND USES THEREOF” (The Research Foundation for The State University of New York, priority 2022, published 2026)
